B1: RIN1 (protein, UniProt Q13671 1-783, looked up)
Ras and Rab interactor 1: MESPGESGAGSPGAPSPSSFTTGHLAREKPAQDPLYDVPNASGGQAGGPQRPGRVVSLRERLLLTRPVWLQLQANAAAALHMLRTEPPGTFLVRKSNTRQCQALCMRLPEASGPSFVSSHYILESPGGVSLEGSELMFPDLVQLICAYCHTRDILLLPLQLPRAIHHAATHKELEAISHLGIEFWSSSLNIKAQRGPAGGPVLPQLKARSPQELDQGTGAALCFFNPLFPGDLGPTKREKFKRSFKVRVSTETSSPLSPPAVPPPPVPVLPGAVPSQTERLPPCQLLRRESSVGYRVPAGSGPSLPPMPSLQEVDCGSPSSSEEEGVPGSRGSPATSPHLGRRRPLLRSMSAAFCSLLAPERQVGRAAAALMQDRHTAAGQLVQDLLTQVRAGPEPQELQGIRQALSRARAMLSAELGPEKLLSPKRLEHVLEKSLHCSVLKPLRPILAARLRRRLAADGSLGRLAEGLRLARAQGPGAFGSHLSLPSPVELEQVRQKLLQLLRTYSPSAQVKRLLQACKLLYMALRTQEGEGAGADEFLPLLSLVLAHCDLPELLLEAEYMSELLEPSLLTGEGGYYLTSLSASLALLSGLGQAHTLPLSPVQELRRSLSLWEQRRLPATHCFQHLLRVAYQDPSSGCTSKTLAVPPEASIATLNQLCATKFRVTQPNTFGLFLYKEQGYHRLPPGALAHRLPTTGYLVYRRAEWPETQGAVTEEEGSGQSEARSRGEEQGCQGDGDAGVKASPRDIREQSETTAEGGQGQAQEGPAQPGEPEAEGSRAAEE
B2: RAPGEF1 (protein, UniProt Q13905 1-1077, looked up)
Rap guanine nucleotide …: MDTDSQRSHLSSFTMKLMDKFHSPKIKRTPSKKGKPAEVSVKIPEKPVNKEATDRFLPEGYPLPLDLEQQAVEFMSTSAVASRSQRQKNLSWLEEKEKEVVSALRYFKTIVDKMAIDKKVLEMLPGSASKVLEAILPLVQNDPRIQHSSALSSCYSRVYQSLANLIRWSDQVMLEGVNSEDKEMVTTVKGVIKAVLDGVKELVRLTIEKQGRPSPTSPVKPSSPASKPDGPAELPLTDREVEILNKTTGMSQSTELLPDATDEEVAPPKPPLPGIRVVDNSPPPALPPKKRQSAPSPTRVAVVAPMSRATSGSSLPVGINRQDFDVDCYAQRRLSGGSHSYGGESPRLSPCSSIGKLSKSDEQLSSLDRDSGQCSRNTSCETLDHYDPDYEFLQQDLSNADQIPQQTAWNLSPLPESLGESGSPFLGPPFQLPLGGHPQPDGPLAPGQQTDTPPALPEKKRRSAASQTADGSGCRVSYERHPSQYDNISGEDLQSTAPIPSVPYAPFAAILPFQHGGSSAPVEFVGDFTAPESTGDPEKPPPLPEKKNKHMLAYMQLLEDYSEPQPSMFYQTPQNEHIYQQKNKLLMEVYGFSDSFSGVDSVQELAPPPALPPKQRQLEPPAGKDGHPRDPSAVSGVPGKDSRDGSERAPKSPDALESAQSEEEVDELSLIDHNEIMSRLTLKQEGDDGPDVRGGSGDILLVHATETDRKDLVLYCEAFLTTYRTFISPEELIKKLQYRYEKFSPFADTFKKRVSKNTFFVLVRVVDELCLVELTEEILKLLMELVFRLVCNGELSLARVLRKNILDKVDQKKLLRCATSSQPLAARGVAARPGTLHDFHSHEIAEQLTLLDAELFYKIEIPEVLLWAKEQNEEKSPNLTQFTEHFNNMSYWVRSIIMLQEKAQDRERLLLKFIKIMKHLRKLNNFNSYLAILSALDSAPIRRLEWQKQTSEGLAEYCTLIDSSSSFRAYRAALSEVEPPCIPYLGLILQDLTFVHLGNPDYIDGKVNFSKRWQQFNILDSMRCFQQAHYDMRRNDDIINFFNDFSDHLAEEALWELSLKIKPRNITRRKTDREEKT
B3: TNK2 (protein, UniProt Q07912 1-1038, looked up)
Activated CDC42 kinase 1: MQPEEGTGWLLELLSEVQLQQYFLRLRDDLNVTRLSHFEYVKNEDLEKIGMGRPGQRRLWEAVKRRKALCKRKSWMSKVFSGKRLEAEFPPHHSQSTFRKTSPAPGGPAGEGPLQSLTCLIGEKDLRLLEKLGDGSFGVVRRGEWDAPSGKTVSVAVKCLKPDVLSQPEAMDDFIREVNAMHSLDHRNLIRLYGVVLTPPMKMVTELAPLGSLLDRLRKHQGHFLLGTLSRYAVQVAEGMGYLESKRFIHRDLAARNLLLATRDLVKIGDFGLMRALPQNDDHYVMQEHRKVPFAWCAPESLKTRTFSHASDTWMFGVTLWEMFTYGQEPWIGLNGSQILHKIDKEGERLPRPEDCPQDIYNVMVQCWAHKPEDRPTFVALRDFLLEAQPTDMRALQDFEEPDKLHIQMNDVITVIEGRAENYWWRGQNTRTLCVGPFPRNVVTSVAGLSAQDISQPLQNSFIHTGHGDSDPRHCWGFPDRIDELYLGNPMDPPDLLSVELSTSRPPQHLGGVKKPTYDPVSEDQDPLSSDFKRLGLRKPGLPRGLWLAKPSARVPGTKASRGSGAEVTLIDFGEEPVVPALRPCAPSLAQLAMDACSLLDETPPQSPTRALPRPLHPTPVVDWDARPLPPPPAYDDVAQDEDDFEICSINSTLVGAGVPAGPSQGQTNYAFVPEQARPPPPLEDNLFLPPQGGGKPPSSAQTAEIFQALQQECMRQLQAPAGSPAPSPSPGGDDKPQVPPRVPIPPRPTRPHVQLSPAPPGEEETSQWPGPASPPRVPPREPLSPQGSRTPSPLVPPGSSPLPPRLSSSPGKTMPTTQSFASDPKYATPQVIQAPGPRAGPCILPIVRDGKKVSSTHYYLLPERPSYLERYQRFLREAQSPEEPTPLPVPLLLPPPSTPAPAAPTATVRPMPQAALDPKANFSTNNSNPGARPPPPRATARLPQRGCPGDGPEAGRPADKIQMAMVHGVTTEECQAALQCHGWSVQRAAQYLKVEQLFGLGLRPRGECHKVLEMFDWNLEQAGCHLLGSWGPAHHKR
B4: STAM (protein, UniProt Q92783 2-540, looked up)
Signal transducing adapter …: PLFATNPFDQDVEKATSEMNTAEDWGLILDICDKVGQSRTGPKDCLRSIMRRVNHKDPHVAMQALTLLGACVSNCGKIFHLEVCSRDFASEVSNVLNKGHPKVCEKLKALMVEWTDEFKNDPQLSLISAMIKNLKEQGVTFPAIGSQAAEQAKASPALVAKDPGTVANKKEEEDLAKAIELSLKEQRQQSTTLSTLYPSTSSLLTNHQHEGRKVRAIYDFEAAEDNELTFKAGEIITVLDDSDPNWWKGETHQGIGLFPSNFVTADLTAEPEMIKTEKKTVQFSDDVQVETIEPEPEPAFIDEDKMDQLLQMLQSTDPSDDQPDLPELLHLEAMCHQMGPLIDEKLEDIDRKHSELSELNVKVMEALSLYTKLMNEDPMYSMYAKLQNQPYYMQSSGVSGSQVYAGPPPSGAYLVAGNAQMSHLQSYSLPPEQLSSLSQAVVPPSANPALPSQQTQAAYPNTMVSSVQGNTYPSQAPVYSPPPAATAAAATADVTLYQNAGPNMPQVPNYNLTSSTLPQPGGSQQPPQPQQPYSQKALL
B5: GRAP2 (protein, UniProt O75791 1-330, looked up)
GRB2-related adapter protein 2: MEAVAKFDFTASGEDELSFHTGDVLKILSNQEEWFKAELGSQEGYVPKNFIDIQFPKWFHEGLSRHQAENLLMGKEVGFFIIRASQSSPGDFSISVRHEDDVQHFKVMRDNKGNYFLWTEKFPSLNKLVDYYRTNSISRQKQIFLRDRTREDQGHRGNSLDRRSQGGPHLSGAVGEEIRPSMNRKLSDHPPTLPLQQHQHQPQPPQYAPAPQQLQQPPQQRYLQHHHFHQERRGGSLDINDGHCGTGLGSEMNAALMHRRHTDPVQLQAAGRVRWARALYDFEALEDDELGFHSGEVVEVLDSSNPSWWTGRLHNKLGLFPANYVAPMTR
B6: SH3GL3 (protein, UniProt Q99963 1-347, looked up)
Endophilin-A3: MSVAGLKKQFHKASQLFSEKISGAEGTKLDDEFLDMERKIDVTNKVVAEILSKTTEYLQPNPAYRAKLGMLNTVSKIRGQVKTTGYPQTEGLLGDCMLKYGKELGEDSTFGNALIEVGESMKLMAEVKDSLDINVKQTFIDPLQLLQDKDLKEIGHHLKKLEGRRLDYDYKKKRVGKIPDEEVRQAVEKFEESKELAERSMFNFLENDVEQVSQLAVFIEAALDYHRQSTEILQELQSKLQMRISAASSVPRREYKPRPVKRSSSELNGVSTTSVVKTTGSNIPMDQPCCRGLYDFEPENQGELGFKEGDIITLTNQIDENWYEGMIHGESGFFPINYVEVIVPLPQ
B7: CSK (protein, UniProt P41240 2-450, looked up)
Tyrosine-protein kinase CSK: SAIQAAWPSGTECIAKYNFHGTAEQDLPFCKGDVLTIVAVTKDPNWYKAKNKVGREGIIPANYVQKREGVKAGTKLSLMPWFHGKITREQAERLLYPPETGLFLVRESTNYPGDYTLCVSCDGKVEHYRIMYHASKLSIDEEVYFENLMQLVEHYTSDADGLCTRLIKPKVMEGTVAAQDEFYRSGWALNMKELKLLQTIGKGEFGDVMLGDYRGNKVAVKCIKNDATAQAFLAEASVMTQLRHSNLVQLLGVIVEEKGGLYIVTEYMAKGSLVDYLRSRGRSVLGGDCLLKFSLDVCEAMEYLEGNNFVHRDLAARNVLVSEDNVAKVSDFGLTKEASSTQDTGKLPVKWTAPEALREKKFSTKSDVWSFGILLWEIYSFGRVPYPRIPLKDVVPRVEKGYKMDAPDGCPPAVYEVMKNCWHLDAAMRPSFLQLREQLEHIKTHELHL

target: T1, EGFR-Wt (Homo sapiens, UniProt P00533); assay: MaMTH EGFR-interactor screen, lentiviral preys against EGFR-wildtype bait (interaction score); assay type: cell-based; conditions: MaMTH interaction score of prey with EGFR-Wt bait, mean
T1 construct: with the advantage of testing full-length integral membrane proteins; (GGGGS)2 linker-Cub (human ubiquitin aa 35-76)-GAL4(1-147)-mNFkB(364-550) (C); expressed in transfected cells
Experimental: (§1) After lentivirus harvest, target cells (stable 5×GAL4UAS-luciferase reporter-HEK293T cells) were infected at a multiplicity of infection (MOI) of around 0.3-0.4 to ensure single copy integration per cell. Cells were selected in puromycin for at least 48 h and transfected with either EGFR-wildtype or EGFR-L858R baits in triplicates. 24 h after transfection, cells were lysed and luciferase assays performed. On each set of interaction assays, various negative controls were included. To calculate a MaMTH-interaction scores, negative controls were averaged and the fold-change of luciferase activity compared to the averaged controls was calculated and defined as the interaction score.
(§2) Each set of experiments contains a defined set of negative controls in at least three replicates. Negative controls were chosen as such that there is a range of controls showing high-background luciferase activity (normally cytosolic proteins: Fabp5, Pex19) as well as medium-background luciferase activity (membrane-bound interactors: Pex7, GABBR2). Negative controls were averaged and the fold-change of luciferase activity was calculated. Using this method, we have a stringent cut-off and chose an interaction score >1 to be interacting proteins.
(§3) Our cut-off of 1 is based on fold-change difference in luciferase activity over averaged negative controls. Negative controls include cytosolic preys (which tend to promiscuously bind to many proteins), plasma membrane- and peroxisomal-prey proteins. In general, we chose stringent conditions by testing preys that tend to have high luciferase background with any bait tested, in order to generate high-confidence interaction data. […] Phosphorylated tyrosine residues on the receptor are typically docking sites for downstream cytoplasmic targets and recognized through SH2 or PTB domains^43.

| Molecule | EGFR-Wt mean |
| --- | --- |
| B1 | 2.19 |
| B2 | 3.48 |
| B3 | 1.51 |
| B4 | 0.56 |
| B5 | 1.79 |
| B6 | 3.41 |
| B7 | 8.40 |

test system: EGFR-Wt; assay: as above; assay type: cell-based, human; conditions: ratio of EGFR-Wt mean to EGFR-L858R mean interaction score
Experimental: as §1, §2, §3

| Molecule | Wt/L858R |
| --- | --- |
| B1 | 1.19 |
| B2 | 1.10 |
| B3 | 1.16 |
| B4 | 0.23 |
| B5 | 0.22 |
| B6 | 1.05 |
| B7 | 1.43 |

target: T2, EGFR-L858R (Homo sapiens, UniProt P00533, L858R); assay: MaMTH EGFR-interactor screen, lentiviral preys against EGFR-L858R bait (interaction score); assay type: cell-based; conditions: MaMTH interaction score of prey with EGFR-L858R bait
T2 construct: with the advantage of testing full-length integral membrane proteins; (GGGGS)2 linker-Cub (human ubiquitin aa 35-76)-GAL4(1-147)-mNFkB(364-550) (C); expressed in transfected cells
Experimental: as §1, §2, §3

| Molecule | EGFR-L858R mean |
| --- | --- |
| B1 | 1.84 |
| B2 | 3.15 |
| B3 | 1.30 |
| B4 | 2.49 |
| B5 | 8.12 |
| B6 | 3.26 |
| B7 | 5.86 |

Reference: patent US9958461B2, “Detection of protein to protein interactions” (THE GOVERNING COUNCIL OF THE UNIVERSITY OF TORONTO, priority 2013, dated 2018)
